US20160264960A1 (Chugai, published 2016)

T1: human plexin A1 protein sema domain (from glutamic acid at position 28 to serine at position 514) tagged at … (human, UniProt Q9UIW2 28-514)
T1 construct: also called human plexin A1 sema domain
T1 sequence: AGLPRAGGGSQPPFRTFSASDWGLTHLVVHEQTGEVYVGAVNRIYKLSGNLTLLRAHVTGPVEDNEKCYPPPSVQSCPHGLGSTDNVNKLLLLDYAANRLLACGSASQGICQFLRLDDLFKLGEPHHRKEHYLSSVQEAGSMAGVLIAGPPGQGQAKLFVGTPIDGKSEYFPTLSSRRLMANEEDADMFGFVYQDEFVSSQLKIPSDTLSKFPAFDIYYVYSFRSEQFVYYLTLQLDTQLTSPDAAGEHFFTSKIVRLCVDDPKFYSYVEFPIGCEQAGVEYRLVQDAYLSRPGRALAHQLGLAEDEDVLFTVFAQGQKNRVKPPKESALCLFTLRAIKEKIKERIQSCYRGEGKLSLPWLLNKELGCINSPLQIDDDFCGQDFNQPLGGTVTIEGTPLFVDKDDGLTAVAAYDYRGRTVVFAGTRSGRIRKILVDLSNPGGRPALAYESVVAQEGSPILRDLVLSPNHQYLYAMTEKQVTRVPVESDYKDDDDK

T2: biotinylated human IL-6R (shIL6R-Avitag) (human, UniProt P08887 20-357, biotinylated at the C-terminal AviTag sequence by biotin ligase (BirA))
T2 construct: It was captured on a StreptaWell plate in the phage ELISA; its preparation is described in (3-3); also called biotinylated hIL-6R
T2 sequence: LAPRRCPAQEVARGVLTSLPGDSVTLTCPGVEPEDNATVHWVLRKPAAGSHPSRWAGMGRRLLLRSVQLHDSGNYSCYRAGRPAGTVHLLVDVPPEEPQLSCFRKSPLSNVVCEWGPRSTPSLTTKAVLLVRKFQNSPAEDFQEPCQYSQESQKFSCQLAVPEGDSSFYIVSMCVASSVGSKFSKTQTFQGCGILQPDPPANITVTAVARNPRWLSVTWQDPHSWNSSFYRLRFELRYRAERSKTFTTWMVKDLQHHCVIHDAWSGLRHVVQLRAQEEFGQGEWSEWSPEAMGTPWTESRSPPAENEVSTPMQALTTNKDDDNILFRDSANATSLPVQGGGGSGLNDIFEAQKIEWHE

B1: hPANLB2-3_264 (antibody, human IgG1, lambda, V domains shown)
VH: QVQLQQSGPGLVKPSQTLSLTCAISGDSVSSNSAAWNWIRQSPSRGLEWLGRTYYRSKWYNDYAVSVKSRITINPDTSKNQFSLQLNSVTPEDTAVYYCARDRGYSYGFDYWGQGTLVTVSS
VL: SYLLTQPPSVSVSPGQTASITCSGDKLGQKFVSWYQQRPGQSPVLVIYQDTKRPSGIPERFSGSNSGNTATLTISGTQAMDEADYYCQAWDSSTAGVFGGGTNLTVLG
notes: Parent anti-plexin A1 antibody, IgG
B2: PLR4H264#061 (antibody, human IgG1, lambda, V domains shown)
VH: QVQLQQSGPGLVKPSQTLSLTCAISGDSVSSNSAAWNWIRQSPSRGLEWLGRTYYRSKWYNDYAVSVKSRITINPDTSKNQFSLQLNSVTPEDTAVYYCARDRGYSYGFDYWGQGTLVTVSS
VL: SYELTQPPSVAVSPGQTASITCSGHKLGEKYASWYQQKPGQSPVLVIYQDTKRPSGIPERFSGSNSGNTATLTISGTQAMDEADYYCQAWDSSSVCVFGTGTKVTVLG
notes: IgG from the 264H-NL library
B3: PLR3H264#022 (antibody, human IgG1, lambda, V domains shown)
VH: QVQLQQSGPGLVKPSQTLSLTCAISGDSVSSNSAAWNWIRQSPSRGLEWLGRTYYRSKWYNDYAVSVKSRITINPDTSKNQFSLQLNSVTPEDTAVYYCARDRGYSYGFDYWGQGTLVTVSS
VL: SYVLTQPRSVSVSPGQTTRITCSGQNLGEKYISWYRQKPGQSPEVLIYEDKRRPSGIPERISGANSGGTATLTISGTQAMDEADYFCQAWVSSTEGVFGGGTRLTVLR
notes: IgG from the 264H-NL library
B4: PLR2H264#002 (antibody, human IgG1, lambda, V domains shown)
VH: QVQLQQSGPGLVKPSQTLSLTCAISGDSVSSNSAAWNWIRQSPSRGLEWLGRTYYRSKWYNDYAVSVKSRITINPDTSKNQFSLQLNSVTPEDTAVYYCARDRGYSYGFDYWGQGTLVTVSS
VL: SYELTQPPSVSVSPGQTASITCSGDKLGNKYVSWYQRRPGQSPVLVIYQDSKRPSGIPERFSGSNSGNTATLTISGTQSMDEADYYCQAWYSSSVGVFGGGTRLTVLG
notes: IgG from the 264H-NL library
B5: hPANLB2-3_342 (antibody, human IgG1, lambda, V domains shown)
VH: EVQLVQSGAEVKKPGASVKVSCKASGYTFTSYGISWVRQAPGQGLEWMGWISAYNGNTNYAQKLQGRVTMTTDTSTSTAYMELRSLRSDDTAVYYCARHAGYYYGMDVWGKGTMVTVSS
VL: SYELTQPPSVSVSPGQTASITCSGDKLGEKYASWYQQKPGQSPVLVIYQDSKRPSGIPERFSGSNSGNMATLTISGTQAVDEADYYCQTWDSNTAFVFGTGTKVTVLG
notes: as for B1
B6: PLR2H359#087 (antibody, human IgG1, lambda, V domains shown)
VH: QVQLVQSGAEVKKPGASVKVSCKASGYTFTSYYMHWVRQAPGQGLEWMGIINPSGGSTSYAQKFQGRVTMTRDTSTSTVYMELSSLRSEDTAVYYCARAPGHYYYGMDVWGQGTTVTVSS
VL: SSELTQPPSMSVSPGQTASISCSGDRLGEKYASWYQQKPGQSPVLVIYQDNKRPSGIPERFSGSNSGNTATLTISGTQAIDEADYYCQAWDSNSAYVFGTGTKVTVLG
notes: IgG from the 359H-NL library
B7: PF1 Fab displayed on phage (PF1 H chain Fd-g3p fusion with PF1 L chain) (Fab, V domains shown)
VH: QVQLQESGPGLVKPSETLSLTCAVSGYSISDDHAWSWVRQPPGEGLEWIGYISYSGITNYNPSLKGRVTISRDTSKNQFSLKLSSVTAADTAAYYCARVLARITAMDYWGEGTLVTVSS
VL: DIQMTQSPSSLSASVGDSVTITCQASQDISSYLNWYQQKPGKAPELLIYYGSELHSGVPSRFSGSGSGTDFTFTISSLEAEDAATYYCGQGNRLPYTFGQGTKVEIER
notes: also called Fab-displaying phage; phage produced with M13KO7TC-PF1L; not shown: linker peptide and gene 3 protein (g3p) fused to the C terminus of the Fd
B8: hPANLB2-3_359 (antibody, human IgG1, lambda, V domains shown)
VH: QVQLVQSGAEVKKPGASVKVSCKASGYTFTSYYMHWVRQAPGQGLEWMGIINPSGGSTSYAQKFQGRVTMTRDTSTSTVYMELSSLRSEDTAVYYCARAPGHYYYGMDVWGQGTTVTVSS
VL: SYELTQPPSVSVSPGQTASITCSGDKVGEKYASWYQQRPGQSPVLVIYQDTKRPSGIPERFSGSNSGNTATLTISGTQAIDDADYYCQAWDNSAYVIFGGGTKLTVLG
notes: as for B1
B9: PLR2H359#062 (antibody, human IgG1, lambda, V domains shown)
VH: QVQLVQSGAEVKKPGASVKVSCKASGYTFTSYYMHWVRQAPGQGLEWMGIINPSGGSTSYAQKFQGRVTMTRDTSTSTVYMELSSLRSEDTAVYYCARAPGHYYYGMDVWGQGTTVTVSS
VL: SYELTQPPSLSVSPGQTASITCSGDKLGEKYACWYQQKPGQSPALVIYQDTKRPSGIPERFSGSNSGNTATLTISGTQAMDEADYSCQAWDTNTGEVVFGGGTKLTVLG
notes: IgG from the 359H-NL library
B10: phage produced by the H chain (PF1H)-expressing phagemid vector and the negative control helper phage M13KO7TC (other)
heavy: QVQLQESGPGLVKPSETLSLTCAVSGYSISDDHAWSWVRQPPGEGLEWIGYISYSGITNYNPSLKGRVTISRDTSKNQFSLKLSSVTAADTAAYYCARVLARITAMDYWGEGTLVTVSSASTKGPSVFPLAPSSKSTSGGTAALGCLVKDYFPEPVTVSWNSGALTSGVHTFPAVLQSSGLYSLSSVVTVPSSSLGTQTYICNVNHKPSNTKVDKK
notes: Control phage without an L chain; not shown: linker peptide and gene 3 protein (g3p)

Tests used:
[1] = molecular target: T1, human plexin A1 protein sema domain …; experiment: SPR, Biacore T200; the parent antibody itself (control)
Protocol: (§1) Each antibody obtained in the paragraph (10-1) was evaluated for its binding activity against the antigen by surface plasmon resonance (SPR) analysis.
(§2) In the SPR analysis, the antibody was analyzed using Biacore T200 (GE Healthcare Japan Corp.). The anti-human plexin A1 antibody was immobilized onto the surface of Sensor Chip CM4 using Recombinant Protein A/G (Thermo Fisher Scientific Inc.) and Amine Coupling Kit (GE Healthcare Japan Corp.). The antigen used was a human plexin A1 protein sema domain (from glutamic acid at position 28 to serine at position 514) tagged at the C terminus of the protein with FLAG tag. The antigen was prepared as follows: an expression vector carrying a cDNA corresponding to the human plexin A1 sema domain was transferred to FreeStyle 293 cells. After culture, the obtained culture solution was passed through an anti-FLAG-M2 antibody-immobilized affinity column. A fraction eluted with the FALG peptide was purified by gel filtration. The obtained antigen was serially diluted with 20 mM ACES, 150 mM NaCl, 0.05% polysorbate 20, and 1.2 mM CaCl₂ (pH 7.4) and added to the sensor chip at a flow rate of 30 μL/min. In this assay system, the dissociation constant (KD) between the human plexin A1 protein and the anti-human plexin A1 antibody was calculated using data analysis software (BIA T200 Evaluation software ver. 2).

[2] = molecular target: T1, human plexin A1 protein sema domain …; experiment: SPR, Biacore T200; antibody held by Protein A/G on CM4 chip, sema domain as analyte
Protocol: as §1, §2

[3] = molecular target: T1, human plexin A1 protein sema domain …; experiment: SPR, Biacore T200; KD against parent antibody hPANLB2-3_264
Protocol: as §1, §2

[4] = molecular target: T1, human plexin A1 protein sema domain …; experiment: SPR, Biacore T200; KD against parent antibody hPANLB2-3_359
Protocol: as §1, §2

[5] = molecular target: T2, biotinylated human IL-6R (shIL6R-Avitag); experiment: phage ELISA, plate coated with biotinylated human IL-6R, detection with HRP anti-M13 antibody, absorbance at 450 nm
Protocol: The phage ELISA method was carried out to confirm Fab display on the produced phage and to confirm the ability to bind to the antigen. StreptaWell 96-well microtiter plate (F. Hoffmann-La Roche, Ltd.) was coated by the addition of 100 μL of PBS containing Goat anti-Human Kappa Biotin antibody (EY Laboratories, Inc.) or biotinylated human IL-6R. Each well of the plate was washed with 0.1×TBST (0.1×TBS containing 0.1% Tween 20) to remove the antigen. Then, the plate was blocked for 1 hour or longer by the addition of 250 μL of 0.02% skim milk-0.1×TBS (0.1×TBS containing 0.02% skim milk) to the well. […] After washing with 0.1×TBST, an HRP-conjugated anti-M13 antibody (Amersham Pharmacia Biotech) diluted with 0.1×TBST was added to each well, and the plate was incubated for 1 hour. After washing with 0.1×TBST, TMB single solution (Zymed Laboratories Inc.) was added to each well. The color reaction of the solution was further terminated by the addition of sulfuric acid. Then, the absorbance was measured at 450 nm.

| Binder | Relative KD improvement [1] [fold] | Kd [2] [nM] | Relative KD improvement [3] [fold] | Relative KD improvement [4] [fold] | binding result [5] |
| --- | --- | --- | --- | --- | --- |
| B1 | 1 | 173 |  |  |  |
| B2 |  | 41 | 4.2 |  |  |
| B3 |  | 56.9 | 3 |  |  |
| B4 |  | 138 | 1.3 |  |  |
| B5 | 1 | 34.5 |  |  |  |
| B6 |  | 4.62 |  | 2.9 |  |
| B7 |  |  |  |  | binds |
| B8 | 1 | 13.5 |  |  |  |
| B9 |  | 3.93 |  | 3.4 |  |
| B10 |  |  |  |  | no binding |
